Source: the supplement of paper PMC10126150
± gives the standard deviation of the averaged measurements.

The sequences below were run on ATP (assay: switch fluorescence ratio, 500 uM ATP over buffer (Cy3 cluster intensity, sum of 5 cycles each) (fold (ratio)); higher = stronger signal-on switching upon ATP binding; sequences stand for … in TCGTCGGCAGCGTCAGATGTGTATAAGAGACAGTTTTTTTTTTTTTTTTTTTTTTTTT…TC). Conditions: aptamer strand: ATP DNA aptamer (quencher-CACCTGGGGGAGTATTGCGGAGGAAGG + anchor), 100 nM annealed; ATP concentration: 500 uM.
Procedure, shortened: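 Exposure to 500 uM ATP lasted 15 min at 22 °C before imaging, and a selection-buffer image was taken beforehand, for Cy3-labelled switching-strand clusters on a modified Illumina MiSeq flow-cell annealed to 100 nM quencher-labelled ATP aptamer. Five buffer/ATP cycles were run with NaOH stripping and re-annealing between them. The fluorescence ratio per cluster is summed target-cycle over summed buffer-cycle Cy3 intensity, averaged per switch-domain sequence. Clusters outside 100-1000 RFU were excluded.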

Sequence	switch fluorescence ratio
TGTAGTTGGA	0.973 ± 0.032
TGTATAAAAA	0.9906 ± 0.0039
TGTATAAAGG	1.009 ± 0.0069
TGTATAAAGT	0.986 ± 0.02
TGTATAATTG	0.993 ± 0.017
TGTATGGCTA	1.0085 ± 0.00081
TGTATGGGAG	0.968 ± 0.02
TGTATGGTAG	0.975 ± 0.025
TGTATGTTAG	0.9477 ± 0.0061
TGTATTTCGT	1.01 ± 0.011
TGTATTTTTG	1.02 ± 0.029
TGTCAGAGGG	1.01 ± 0.016
TGTCAGGAAA	0.9717 ± 0.0065
TGTCAGGGGG	1.01 ± 0.023
TGTCAGTGGG	0.975 ± 0.034
TGTCAGTTAT	0.979 ± 0.031
TGTCATTCGC	1.047 ± 0.0074
TGTCATTGGA	0.989 ± 0.017
TGTCCACTAC	2.78 ± 2.3
TGTCCGAGCA	1.75 ± 0.058
TGTCCTAGCG	0.99 ± 0.024
TGTCGCATTT	1.04 ± 0.012
TGTCGGAGGG	0.973 ± 0.065
TGTCGGCTGG	1.02 ± 0.052
TGTCGGGGTT	0.9932 ± 0.0083
TGTCGGTGTT	0.971 ± 0.029

Sequence	switch fluorescence ratio
TGTCGGTTTT	0.996 ± 0.037
TGTCGTAGGA	1.006 ± 0.0035
TGTCGTTTTC	0.98 ± 0.03
TGTCTTAGGA	0.999 ± 0.019
TGTGAAAGAC	1.044 ± 0.003
TGTGAAGTGG	1.02 ± 0.034
TGTGAATTCG	1.01 ± 0.024
TGTGACTAAG	0.9791 ± 0.0015
TGTGAGGG	1.03 ± 0.036
TGTGAGGGGA	1.01 ± 0.035
TGTGAGGGTT	0.964 ± 0.012
TGTGAGGTTC	0.9675 ± 0.0075
TGTGAGTTGG	1 ± 0.029
TGTGAGTTTA	0.978 ± 0.028
TGTGAGTTTG	1.03 ± 0.013
TGTGATGGGC	0.989 ± 0.026
TGTGCGCGCT	0.995 ± 0.036
TGTGCTGCTG	1.06 ± 0.02
TGTGGAAAAA	1.011 ± 0.0081
TGTGGACTGT	0.9855 ± 0.0015
TGTGGAGCTT	1.07 ± 0.041
TGTGGATAGG	1.03 ± 0.012
TGTGGATTAT	0.988 ± 0.011
TGTGGCACAC	1.01 ± 0.018
TGTGGGAGCG	0.9542 ± 0.0021
TGTGGGAGGG	0.998 ± 0.042

Sequence	switch fluorescence ratio
TGTGGGGAAA	0.993 ± 0.03
TGTGGGGGTT	0.986 ± 0.048
TGTGGGTATT	1.01 ± 0.028
TGTGGGTCGT	1.01 ± 0.026
TGTGGTACCA	1.01 ± 0.023
TGTGGTCGGT	1.015 ± 0.007
TGTGGTGAA	1.01 ± 0.011
TGTGGTTAGG	0.993 ± 0.035
TGTGGTTTGT	1 ± 0.035
TGTGGTTTTA	1 ± 0.033
TGTGTAGGGG	1.04 ± 0.079
TGTGTCCTAA	1.03 ± 0.026
TGTGTCCTGC	0.965 ± 0.016
TGTGTCGCGG	1 ± 0.033
TGTGTCGCGT	0.983 ± 0.02
TGTGTCTACA	1 ± 0.024
TGTGTGACAC	0.998 ± 0.026
TGTGTGAGGT	1.06 ± 0.027
TGTGTGCGGT	0.997 ± 0.054
TGTGTGGGAC	0.988 ± 0.025
TGTGTGTGTT	1.02 ± 0.03
TGTGTGTTGA	1.023 ± 0.0026
TGTGTGTTGG	0.993 ± 0.024
TGTGTTACGG	0.984 ± 0.023
TGTGTTGGGT	0.98 ± 0.015
TGTGTTTTTG	1.01 ± 0.015

Sequence	switch fluorescence ratio
TGTTAAATGG	0.962 ± 0.014
TGTTAATAAG	0.9618 ± 0.0071
TGTTAATAGT	0.981 ± 0.015
TGTTAATCAC	1.02 ± 0.034
TGTTAATTGG	1.02 ± 0.043
TGTTACGGTG	1.002 ± 0.0031
TGTTACTACG	1.0494 ± 0.00016
TGTTACTAGC	1.03 ± 0.0034
TGTTAGCCGA	1.02 ± 0.026
TGTTAGCCTT	1.04 ± 0.017
TGTTAGTTTG	0.981 ± 0.029
TGTTATATTA	1.01 ± 0.034
TGTTATTGGG	0.987 ± 0.042
TGTTCGCATG	1.08 ± 0.032
TGTTCTAGGT	1.014 ± 0.0018
TGTTCTTAAG	0.975 ± 0.022
TGTTGAAAGG	0.995 ± 0.046
TGTTGAAGAT	1.005 ± 0.0076
TGTTGATA	0.968 ± 0.016
TGTTGCCGGG	1.0541 ± 0.00067
TGTTGCGGGC	1 ± 0.12
TGTTGCTTCG	1.03 ± 0.042
TGTTGGAAGG	1.01 ± 0.014
TGTTGGCACA	1.015 ± 0.0012
TGTTGGGGTA	1.03 ± 0.06
TGTTGGGTGG	0.9948 ± 0.00021

Sequence	switch fluorescence ratio
TGTTGGTAGG	0.964 ± 0.03
TGTTGTAAAC	1.05 ± 0.032
TGTTGTAGCT	1.02 ± 0.031
TGTTGTGACA	0.967 ± 0.026
TGTTGTGGGT	1.002 ± 0.0063
TGTTGTTAAA	0.982 ± 0.012
TGTTGTTGAT	0.985 ± 0.036
TGTTTAAATT	0.983 ± 0.013
TGTTTAAGCG	0.958 ± 0.085
TGTTTAAGGT	0.9871 ± 0.0045
TGTTTATGAG	0.9849 ± 0.0034
TGTTTATGGT	1.02 ± 0.017
TGTTTCAATT	1.02 ± 0.021
TGTTTCGACG	0.986 ± 0.038
TGTTTGATGT	0.983 ± 0.019
TGTTTGGGAG	1.01 ± 0.031
TGTTTGTATC	1.01 ± 0.016
TGTTTGTGGC	1.12 ± 0.16
TGTTTTATCG	0.999 ± 0.028
TGTTTTATG	1.007 ± 0.0086
TGTTTTCGCT	0.9969 ± 0.0097
TGTTTTCGT	1.02 ± 0.011
TGTTTTGACG	1.07 ± 0.085
TGTTTTGAGC	1 ± 0.037
TGTTTTTAAT	0.99 ± 0.025
TGTTTTTGGA	1 ± 0.026

Sequence	switch fluorescence ratio
TTAAAAAAAT	1.73 ± 1.4
TTAAAAAACT	1.02 ± 0.031
TTAAAAATAG	0.976 ± 0.027
TTAAAAATGG	1.02 ± 0.018
TTAAAAGGGT	0.99 ± 0.013
TTAAAAGTTG	1.051 ± 0.0097
TTAAAATATA	0.984 ± 0.059
TTAAAATCCT	1.12 ± 0.11
TTAAACGAGT	0.997 ± 0.017
TTAAAGAGGG	0.974 ± 0.054
TTAAAGCACT	1.19 ± 0.2
TTAAAGCGGC	0.993 ± 0.083
TTAAAGCGTG	0.969 ± 0.011
TTAAAGGAGG	1.02 ± 0.044
TTAAAGGCTT	0.997 ± 0.019
TTAAAGGGA	1.01 ± 0.022
TTAAAGGGGA	1.04 ± 0.049
TTAAAGGGTG	1.08 ± 0.048
TTAAAGGTTT	1.01 ± 0.018
TTAAAGTGTT	1.09 ± 0.16
TTAAAGTTTT	1.01 ± 0.032
TTAAATTATT	0.984 ± 0.024
TTAAATTCAT	0.97175 ± 0.0009
